Patent US20230407373A1 (priority 2020, published 2023)

B1: PATL1 (protein, UniProt Q86TB9 1-770, looked up)
Protein PAT1 homolog 1: MFRYESLEDCPLDEDEDAFQGLGEEDEEIDQFNDDTFGSGAVDDDWQEAHERLAELEEKLPVAVNEQTGNGERDEMDLLGDHEENLAERLSKMVIENELEDPAIMRAVQTRPVLQPQPGSLNSSIWDGSEVLRRIRGPLLAQEMPTVSVLEYALPQRPPQGPEDDRDLSERALPRRSTSPIIGSPPVRAVPIGTPPKQMAVPSFTQQILCPKPVHVRPPMPPRYPAPYGERMSPNQLCSVPNSSLLGHPFPPSVPPVLSPLQRAQLLGGAQLQPGRMSPSQFARVPGFVGSPLAAMNPKLLQGRVGQMLPPAPGFRAFFSAPPSATPPPQQHPPGPGPHLQNLRSQAPMFRPDTTHLHPQHRRLLHQRQQQNRSQHRNLNGAGDRGSHRSSHQDHLRKDPYANLMLQREKDWVSKIQMMQLQSTDPYLDDFYYQNYFEKLEKLSAAEEIQGDGPKKERTKLITPQVAKLEHAYKPVQFEGSLGKLTVSSVNNPRKMIDAVVTSRSEDDETKEKQVRDKRRKTLVIIEKTYSLLLDVEDYERRYLLSLEEERPALMDDRKHKICSMYDNLRGKLPGQERPSDDHFVQIMCIRKGKRMVARILPFLSTEQAADILMTTARNLPFLIKKDAQDEVLPCLLSPFSLLLYHLPSVSITSLLRQLMNLPQSAATPALSNPHLTAVLQNKFGLSLLLILLSRGEDLQSSDPATESTQNNQWTEVMFMATRELLRIPQAALAKPISIPTNLVSLFSRYVDRQKLNLLETKLQLVQGIR
B2: NHP2 (protein, UniProt Q9NX24 1-153, looked up)
H/ACA ribonucleoprotein …: MTKIKADPDGPEAQAEACSGERTYQELLVNQNPIAQPLASRRLTRKLYKCIKKAVKQKQIRRGVKEVQKFVNKGEKGIMVLAGDTLPIEVYCHLPVMCEDRNLPYVYIPSKTDLGAAAGSKRPTCVIMVKPHEEYQEAYDECLEEVQSLPLPL
B3: DHX8 (protein, UniProt Q14562 1-1220, looked up)
ATP-dependent RNA helicase …: MAVAVAMAGALIGSEPGPAEELAKLEYLSLVSKVCTELDNHLGINDKDLAEFVISLAEKNTTFDTFKASLVKNGAEFTDSLISNLLRLIQTMRPPAKPSTSKDPVVKPKTEKEKLKELFPVLCQPDNPSVRTMLDEDDVKVAVDVLKELEALMPSAAGQEKQRDAEHRDRTKKKKRSRSRDRNRDRDRDRERNRDRDHKRRHRSRSRSRSRTRERNKVKSRYRSRSRSQSPPKDRKDRDKYGERNLDRWRDKHVDRPPPEEPTIGDIYNGKVTSIMQFGCFVQLEGLRKRWEGLVHISELRREGRVANVADVVSKGQRVKVKVLSFTGTKTSLSMKDVDQETGEDLNPNRRRNLVGETNEETSMRNPDRPTHLSLVSAPEVEDDSLERKRLTRISDPEKWEIKQMIAANVLSKEEFPDFDEETGILPKVDDEEDEDLEIELVEEEPPFLRGHTKQSMDMSPIKIVKNPDGSLSQAAMMQSALAKERRELKQAQREAEMDSIPMGLNKHWVDPLPDAEGRQIAANMRGIGMMPNDIPEWKKHAFGGNKASYGKKTQMSILEQRESLPIYKLKEQLVQAVHDNQILIVIGETGSGKTTQITQYLAEAGYTSRGKIGCTQPRRVAAMSVAKRVSEEFGCCLGQEVGYTIRFEDCTSPETVIKYMTDGMLLRECLIDPDLTQYAIIMLDEAHERTIHTDVLFGLLKKTVQKRQDMKLIVTSATLDAVKFSQYFYEAPIFTIPGRTYPVEILYTKEPETDYLDASLITVMQIHLTEPPGDILVFLTGQEEIDTACEILYERMKSLGPDVPELIILPVYSALPSEMQTRIFDPAPPGSRKVVIATNIAETSLTIDGIYYVVDPGFVKQKVYNSKTGIDQLVVTPISQAQAKQRAGRAGRTGPGKCYRLYTERAYRDEMLTTNVPEIQRTNLASTVLSLKAMGINDLLSFDFMDAPPMETLITAMEQLYTLGALDDEGLLTRLGRRMAEFPLEPMLCKMLIMSVHLGCSEEMLTIVSMLSVQNVFYRPKDKQALADQKKAKFHQTEGDHLTLLAVYNSWKNNKFSNPWCYENFIQARSLRRAQDIRKQMLGIMDRHKLDVVSCGKSTVRVQKAICSGFFRNAAKKDPQEGYRTLIDQQVVYIHPSSALFNRQPEWVVYHELVLTTKEYMREVTTIDPRWLVEFAPAFFKVSDPTKLSKQKKQQRLEPLYNRYEEPNAWRISRAFRRR
B4: HNRNPA261 (protein, UniProt P22626 1-353, looked up)
Heterogeneous nuclear …: MEKTLETVPLERKKREKEQFRKLFIGGLSFETTEESLRNYYEQWGKLTDCVVMRDPASKRSRGFGFVTFSSMAEVDAAMAARPHSIDGRVVEPKRAVAREESGKPGAHVTVKKLFVGGIKEDTEEHHLRDYFEEYGKIDTIEIITDRQSGKKRGFGFVTFDDHDPVDKIVLQKYHTINGHNAEVRKALSRQEMQEVQSSRSGRGGNFGFGDSRGGGGNFGPGPGSNFRGGSDGYGSGRGFGDGYNGYGGGPGGGNFGGSPGYGGGRGGYGGGGPGYGNQGGGYGGGYDNYGGGNYGSGNYNDFGNYNQQPSNYGPMKSGNFGGSRNMGGPYGGGNYGPGGSGGSGGYGGRSRY
B5: TRIM28 (protein, UniProt Q13263 2-835, looked up)
Transcription intermediary …: AASAAAASAAAASAASGSPGPGEGSAGGEKRSTAPSAAASASASAAASSPAGGGAEALELLEHCGVCRERLRPEREPRLLPCLHSACSACLGPAAPAAANSSGDGGAAGDGTVVDCPVCKQQCFSKDIVENYFMRDSGSKAATDAQDANQCCTSCEDNAPATSYCVECSEPLCETCVEAHQRVKYTKDHTVRSTGPAKSRDGERTVYCNVHKHEPLVLFCESCDTLTCRDCQLNAHKDHQYQFLEDAVRNQRKLLASLVKRLGDKHATLQKSTKEVRSSIRQVSDVQKRVQVDVKMAILQIMKELNKRGRVLVNDAQKVTEGQQERLERQHWTMTKIQKHQEHILRFASWALESDNNTALLLSKKLIYFQLHRALKMIVDPVEPHGEMKFQWDLNAWTKSAEAFGKIVAERPGTNSTGPAPMAPPRAPGPLSKQGSGSSQPMEVQEGYGFGSGDDPYSSAEPHVSGVKRSRSGEGEVSGLMRKVPRVSLERLDLDLTADSQPPVFKVFPGSTTEDYNLIVIERGAAAAATGQPGTAPAGTPGAPPLAGMAIVKEEETEAAIGAPPTATEGPETKPVLMALAEGPGAEGPRLASPSGSTSSGLEVVAPEGTSAPGGGPGTLDDSATICRVCQKPGDLVMCNQCEFCFHLDCHLPALQDVPGEEWSCSLCHVLPDLKEEDGSLSLDGADSTGVVAKLSPANQRKCERVLLALFCHEPCRPLHQLATDSTFSLDQPGGTLDLTLIRARLQEKLSPPYSSPQEFAQDVGRMFKQFNKLTEDKADVQSIIGLQRFFETRMNEAFGDTKFSAVLVEPPPMSLPGAGLSSQELSGGPGDGP

System: HCoV-OC43 gRNA and sgRNA
Type: binding
Settings: for target (unweighted spectral count, OC43 Probe II capture): 36 hpi, type n_36_v, tested against no-probe control, FDR<10%; for target (unweighted spectral count, OC43 Probe II) / background (unweighted spectral count, no-probe control): type n_48_v, 48 hpi; for target (unweighted spectral count, OC43 Probe II): OC43 Probe II capture on infected cells; for background (unweighted spectral count, no-probe control): no-probe control on infected cells

Row | Molecule | target (unweighted spectral count, OC43 Probe II capture) | target (unweighted spectral count, OC43 Probe II) | background (unweighted spectral count, no-probe control)
1 | B1 | 6 |  | 
2 | B2 | 6 | 6 | 1
3 | B3 | 27 |  | 
4 | B4 | 70 |  | 
5 | B5 | 13 | 6 | 1
